T1: G9a and GLP (Homo sapiens, UniProt Q96KQ7+Q9H9B1)
T1 sequence (Q96KQ7 2-1210 limits assumed): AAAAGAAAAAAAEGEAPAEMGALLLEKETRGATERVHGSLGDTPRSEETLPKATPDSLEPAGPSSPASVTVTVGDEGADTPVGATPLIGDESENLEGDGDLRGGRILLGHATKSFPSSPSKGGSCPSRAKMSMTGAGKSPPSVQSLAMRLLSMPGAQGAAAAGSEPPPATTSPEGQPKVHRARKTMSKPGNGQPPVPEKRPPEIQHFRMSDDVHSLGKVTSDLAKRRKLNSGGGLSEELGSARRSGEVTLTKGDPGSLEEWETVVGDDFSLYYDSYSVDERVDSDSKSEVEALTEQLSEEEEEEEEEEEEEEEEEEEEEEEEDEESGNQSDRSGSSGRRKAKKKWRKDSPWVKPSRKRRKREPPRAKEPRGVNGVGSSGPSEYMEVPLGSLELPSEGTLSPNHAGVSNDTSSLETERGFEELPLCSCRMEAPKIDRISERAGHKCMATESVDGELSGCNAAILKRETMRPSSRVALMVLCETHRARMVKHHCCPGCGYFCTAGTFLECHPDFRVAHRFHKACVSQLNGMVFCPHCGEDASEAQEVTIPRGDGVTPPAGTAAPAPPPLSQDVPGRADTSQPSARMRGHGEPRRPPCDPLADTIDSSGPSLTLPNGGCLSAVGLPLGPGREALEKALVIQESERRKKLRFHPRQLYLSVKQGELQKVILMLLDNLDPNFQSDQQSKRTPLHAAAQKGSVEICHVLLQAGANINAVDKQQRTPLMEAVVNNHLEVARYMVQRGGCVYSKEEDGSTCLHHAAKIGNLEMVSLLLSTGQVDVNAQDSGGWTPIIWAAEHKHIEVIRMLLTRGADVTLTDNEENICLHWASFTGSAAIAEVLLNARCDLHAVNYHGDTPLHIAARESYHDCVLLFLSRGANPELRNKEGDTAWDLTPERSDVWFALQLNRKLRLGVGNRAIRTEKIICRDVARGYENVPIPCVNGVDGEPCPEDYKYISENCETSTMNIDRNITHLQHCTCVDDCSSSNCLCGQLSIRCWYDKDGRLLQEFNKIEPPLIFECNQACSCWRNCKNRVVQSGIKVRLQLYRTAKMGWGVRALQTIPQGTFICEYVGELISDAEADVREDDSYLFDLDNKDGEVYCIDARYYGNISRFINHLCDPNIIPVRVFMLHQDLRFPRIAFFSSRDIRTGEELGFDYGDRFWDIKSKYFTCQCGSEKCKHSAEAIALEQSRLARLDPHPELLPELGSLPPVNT
T1 sequence (Q9H9B1 2-1298 limits assumed): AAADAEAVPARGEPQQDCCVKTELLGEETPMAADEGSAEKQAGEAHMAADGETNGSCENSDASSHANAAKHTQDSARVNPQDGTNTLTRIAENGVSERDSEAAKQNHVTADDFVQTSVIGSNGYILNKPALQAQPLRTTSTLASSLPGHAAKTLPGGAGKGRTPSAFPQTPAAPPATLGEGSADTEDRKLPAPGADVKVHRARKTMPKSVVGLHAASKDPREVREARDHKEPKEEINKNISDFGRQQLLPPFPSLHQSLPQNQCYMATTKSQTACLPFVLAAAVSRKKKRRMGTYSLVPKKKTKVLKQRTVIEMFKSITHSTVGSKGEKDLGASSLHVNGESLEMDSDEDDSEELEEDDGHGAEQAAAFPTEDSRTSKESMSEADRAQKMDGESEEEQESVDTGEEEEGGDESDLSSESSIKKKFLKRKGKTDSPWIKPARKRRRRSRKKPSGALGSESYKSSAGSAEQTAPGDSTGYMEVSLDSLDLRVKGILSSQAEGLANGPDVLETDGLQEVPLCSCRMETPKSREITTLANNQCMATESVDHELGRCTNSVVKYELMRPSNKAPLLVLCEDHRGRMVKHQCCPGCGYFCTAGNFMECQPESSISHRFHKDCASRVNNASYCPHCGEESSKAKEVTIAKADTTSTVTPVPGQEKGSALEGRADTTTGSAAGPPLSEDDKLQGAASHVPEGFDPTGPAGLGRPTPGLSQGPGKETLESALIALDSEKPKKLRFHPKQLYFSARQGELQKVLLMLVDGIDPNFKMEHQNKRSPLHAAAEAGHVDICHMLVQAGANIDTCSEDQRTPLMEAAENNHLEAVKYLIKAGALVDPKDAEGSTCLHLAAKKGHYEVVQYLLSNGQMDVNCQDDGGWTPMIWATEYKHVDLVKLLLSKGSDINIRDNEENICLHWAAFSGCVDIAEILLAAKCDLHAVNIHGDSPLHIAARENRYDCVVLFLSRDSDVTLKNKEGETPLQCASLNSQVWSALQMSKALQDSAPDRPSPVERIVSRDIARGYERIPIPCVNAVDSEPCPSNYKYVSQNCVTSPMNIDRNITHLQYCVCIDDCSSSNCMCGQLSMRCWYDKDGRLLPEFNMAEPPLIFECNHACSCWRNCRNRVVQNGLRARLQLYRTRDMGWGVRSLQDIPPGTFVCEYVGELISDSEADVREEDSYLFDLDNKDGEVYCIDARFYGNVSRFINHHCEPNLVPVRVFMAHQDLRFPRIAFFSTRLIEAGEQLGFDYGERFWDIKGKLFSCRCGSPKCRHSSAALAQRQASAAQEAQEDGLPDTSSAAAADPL


What was measured:
3×MBT domain of L3MBTL1 = test: Triple SILAC pull-down, 3xMBT/3xMBTD355N ratio (cytoplasmic, nuclear and chromatin fractions of 293T cells); type: binding, human; conditions: SILAC ratio, pull-down 3xMBT vs 3xMBTD355N; for 3xMBT/D355N UNC Heavy: experiment with UNC0638 in heavy SILAC media; for 3xMBT/D355N UNC Light: experiment with UNC0638 in light SILAC media;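 as to all read-outs here: proteins quantified with MaxQuant, requiring at least two unique peptides and quantification in both label directions, normalized to the mean of proteins from a digested loading control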
G9a and GLP = target: T1, G9a and GLP; test: Triple SILAC pull-down after UNC0638 treatment of 293T cells, DMSO/UNC0638 ratio of protein captured by 3×MBT; type: cell-based; set-up: cells were treated for 24 hours with UNC0638 at 2.5 μM or DMSO vehicle control; endogenous in cells; host or cells: HEK 293T; conditions: for Relative to UNC0638 UNC Heavy / Relative to UNC0638 UNC Light: SILAC ratio DMSO/UNC0638 of protein pulled down with 3xMBT; for Relative to UNC0638 UNC Heavy: UNC0638 in heavy SILAC media; for Relative to UNC0638 UNC Light: UNC0638 in light SILAC media; for Relative to UNC0638 Average: average of UNC Light and UNC Heavy experiments;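 as to all read-outs here: mass spectrometry (Q-Exactive) SILAC quantitation, DMSO/UNC0638 ratio computed after subtracting 3×MBTD355N mutant pull-down background, only proteins with at least twofold 3×MBT over mutant signal considered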

Molecule	3xMBT/D355N UNC Heavy (3×MBT domain of L3MBTL1) [log base 2]	3xMBT/D355N UNC Light (3×MBT domain of L3MBTL1) [log base 2]	Relative to UNC0638 UNC Heavy (G9a and GLP) [log base 2]	Relative to UNC0638 UNC Light (G9a and GLP) [log base 2]	Relative to UNC0638 Average (G9a and GLP) [log base 2]
MTHFD1 (protein, UniProt P11586 1-935, looked up) C-1-tetrahydrofolate …: MAPAEILNGKEISAQIRARLKNQVTQLKEQVPGFTPRLAILQVGNRDDSNLYINVKLKAAEEIGIKATHIKLPRTTTESEVMKYITSLNEDSTVHGFLVQLPLDSENSINTEEVINAIAPEKDVDGLTSINAGKLARGDLNDCFIPCTPKGCLELIKETGVPIAGRHAVVVGRSKIVGAPMHDLLLWNNATVTTCHSKTAHLDEEVNKGDILVVATGQPEMVKGEWIKPGAIVIDCGINYVPDDKKPNGRKVVGDVAYDEAKERASFITPVPGGVGPMTVAMLMQSTVESAKRFLEKFKPGKWMIQYNNLNLKTPVPSDIDISRSCKPKPIGKLAREIGLLSEEVELYGETKAKVLLSALERLKHRPDGKYVVVTGITPTPLGEGKSTTTIGLVQALGAHLYQNVFACVRQPSQGPTFGIKGGAAGGGYSQVIPMEEFNLHLTGDIHAITAANNLVAAAIDARIFHELTQTDKALFNRLVPSVNGVRRFSDIQIRRLKRLGIEKTDPTTLTDEEINRFARLDIDPETITWQRVLDTNDRFLRKITIGQAPTEKGHTRTAQFDISVASEIMAVLALTTSLEDMRERLGKMVVASSKKGEPVSAEDLGVSGALTVLMKDAIKPNLMQTLEGTPVFVHAGPFANIAHGNSSIIADRIALKLVGPEGFVVTEAGFGADIGMEKFFNIKCRYSGLCPHVVVLVATVRALKMHGGGPTVTAGLPLPKAYIQENLELVEKGFSNLKKQIENARMFGIPVVVAVNAFKTDTESELDLISRLSREHGAFDAVKCTHWAEGGKGALALAQAVQRAAQAPSSFQLLYDLKLPVEDKIRIIAQKIYGADDIELLPEAQHKAEVYTKQGFGNLPICMAKTHLSLSHNPEQKGVPTGFILPIRDIRASVGAGFLYPLVGTMSTMPGLPTRPCFYDIDLDPETEQVNGLF	1.99	2.35	0.05	0.23	0.14
TCOF1 (protein, UniProt Q13428 1-1488, looked up) Treacle protein: MAEARKRRELLPLIYHHLLRAGYVRAAREVKEQSGQKCFLAQPVTLLDIYTHWQQTSELGRKRKAEEDAALQAKKTRVSDPISTSESSEEEEEAEAETAKATPRLASTNSSVLGADLPSSMKEKAKAETEKAGKTGNSMPHPATGKTVANLLSGKSPRKSAEPSANTTLVSETEEEGSVPAFGAAAKPGMVSAGQADSSSEDTSSSSDETDVEGKPSVKPAQVKASSVSTKESPARKAAPAPGKVGDVTPQVKGGALPPAKRAKKPEEESESSEEGSESEEEAPAGTRSQVKASEKILQVRAASAPAKGTPGKGATPAPPGKAGAVASQTKAGKPEEDSESSSEESSDSEEETPAAKALLQAKASGKTSQVGAASAPAKESPRKGAAPAPPGKTGPAVAKAQAGKREEDSQSSSEESDSEEEAPAQAKPSGKAPQVRAASAPAKESPRKGAAPAPPRKTGPAAAQVQVGKQEEDSRSSSEESDSDREALAAMNAAQVKPLGKSPQVKPASTMGMGPLGKGAGPVPPGKVGPATPSAQVGKWEEDSESSSEESSDSSDGEVPTAVAPAQEKSLGNILQAKPTSSPAKGPPQKAGPVAVQVKAEKPMDNSESSEESSDSADSEEAPAAMTAAQAKPALKIPQTKACPKKTNTTASAKVAPVRVGTQAPRKAGTATSPAGSSPAVAGGTQRPAEDSSSSEESDSEEEKTGLAVTVGQAKSVGKGLQVKAASVPVKGSLGQGTAPVLPGKTGPTVTQVKAEKQEDSESSEEESDSEEAAASPAQVKTSVKKTQAKANPAAARAPSAKGTISAPGKVVTAAAQAKQRSPSKVKPPVRNPQNSTVLARGPASVPSVGKAVATAAQAQTGPEEDSGSSEEESDSEEEAETLAQVKPSGKTHQIRAALAPAKESPRKGAAPTPPGKTGPSAAQAGKQDDSGSSSEESDSDGEAPAAVTSAQVIKPPLIFVDPNRSPAGPAATPAQAQAASTPRKARASESTARSSSSESEDEDVIPATQCLTPGIRTNVVTMPTAHPRIAPKASMAGASSSKESSRISDGKKQEGPATQVSKKNPASLPLTQAALKVLAQKASEAQPPVARTQPSSGVDSAVGTLPATSPQSTSVQAKGTNKLRKPKLPEVQQATKAPESSDDSEDSSDSSSGSEEDGEGPQGAKSAHTLGPTPSRTETLVEETAAESSEDDVVAPSQSLLSGYMTPGLTPANSQASKATPKLDSSPSVSSTLAAKDDPDGKQEAKPQQAAGMLSPKTGGKEAASGTTPQKSRKPKKGAGNPQASTLALQSNITQCLLGQPWPLNEAQVQASVVKVLTELLEQERKKVVDTTKESSRKGWESRKRKLSGDQPAARTPRSKKKKKLGAGEGGEASVSPEKTSTTSKGKAKRDKASGDVKEKKGKGSLGSQGAKDEPEEELQKGMGTVEGGDQSNPKSKKEKKKSDKRKKDKEKKEKKKKAKKASTKDSESPSQKKKKKKKKTAEQTV	0.67	3.27	−0.10	0.38	0.14
PABPC4 (protein, UniProt Q13310 1-644, looked up) Polyadenylate-binding protein …: MNAAASSYPMASLYVGDLHSDVTEAMLYEKFSPAGPVLSIRVCRDMITRRSLGYAYVNFQQPADAERALDTMNFDVIKGKPIRIMWSQRDPSLRKSGVGNVFIKNLDKSIDNKALYDTFSAFGNILSCKVVCDENGSKGYAFVHFETQEAADKAIEKMNGMLLNDRKVFVGRFKSRKEREAELGAKAKEFTNVYIKNFGEEVDDESLKELFSQFGKTLSVKVMRDPNGKSKGFGFVSYEKHEDANKAVEEMNGKEISGKIIFVGRAQKKVERQAELKRKFEQLKQERISRYQGVNLYIKNLDDTIDDEKLRKEFSPFGSITSAKVMLEDGRSKGFGFVCFSSPEEATKAVTEMNGRIVGSKPLYVALAQRKEERKAHLTNQYMQRVAGMRALPANAILNQFQPAAGGYFVPAVPQAQGRPPYYTPNQLAQMRPNPRWQQGGRPQGFQGMPSAIRQSGPRPTLRHLAPTGSECPDRLAMDFGGAGAAQQGLTDSCQSGGVPTAVQNLAPRAAVAAAAPRAVAPYKYASSVRSPHPAIQPLQAPQPAVHVQGQEPLTASMLAAAPPQEQKQMLGERLFPLIQTMHSNLAGKITGMLLEIDNSELLHMLESPESLRSKVDEAVAVLQAHHAKKEAAQKVGAVAAATS	2.94	3.59	0.16	0.17	0.16
